T1: semaphorin 3A (UniProt Q14563 21-771, limits assumed)
T1 construct: also called Sema3A; Sema3A ligand
T1 sequence (looked up): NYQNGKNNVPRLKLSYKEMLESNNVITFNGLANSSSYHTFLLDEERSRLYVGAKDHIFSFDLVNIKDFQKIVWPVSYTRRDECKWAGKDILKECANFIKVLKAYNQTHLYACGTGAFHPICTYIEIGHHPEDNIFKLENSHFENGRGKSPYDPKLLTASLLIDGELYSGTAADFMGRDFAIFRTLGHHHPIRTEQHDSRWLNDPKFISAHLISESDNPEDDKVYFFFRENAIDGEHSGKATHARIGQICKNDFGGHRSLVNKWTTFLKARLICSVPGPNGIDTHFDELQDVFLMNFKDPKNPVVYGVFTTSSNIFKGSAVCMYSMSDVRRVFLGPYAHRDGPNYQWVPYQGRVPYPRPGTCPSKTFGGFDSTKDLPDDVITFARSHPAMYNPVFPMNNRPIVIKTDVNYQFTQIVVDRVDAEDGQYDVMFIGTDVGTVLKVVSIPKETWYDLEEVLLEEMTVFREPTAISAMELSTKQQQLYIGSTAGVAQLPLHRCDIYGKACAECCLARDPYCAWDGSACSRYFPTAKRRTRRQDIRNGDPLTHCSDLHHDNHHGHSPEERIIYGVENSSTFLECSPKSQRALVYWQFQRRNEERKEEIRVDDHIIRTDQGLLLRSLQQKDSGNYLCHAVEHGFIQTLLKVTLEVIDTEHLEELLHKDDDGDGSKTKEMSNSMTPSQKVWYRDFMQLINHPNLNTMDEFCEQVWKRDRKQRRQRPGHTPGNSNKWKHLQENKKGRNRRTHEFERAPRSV

B1: neuropilin 1 receptor (receptor, UniProt O14786 273-586, looked up)
chain: FKCMEALGMESGEIHSDQITASSQYSTNWSAERSRLNYPENGWTPGEDSYREWIQVDLGLLRFVTAVGTQGAISKETKKKYYVKTYKIDVSSNGEDWITIKEGNKPVLFQGNTNPTDVVVAVFPKPLITRFVRIKPATWETGISMRFEVYGCKITDYPCSGMLGMVSGLISDSQITSSNQGDRNWMPENIRLVTSRSGWALPPAPHSYINEWLQIDLGEEKIVRGIIIQGGKHRENKVFMRKFKIGYSNNGSDWKMIMDDSKRKAKSFEGNNNYDTPELRTFPALSTRFIRIYPERATHGGLGLRMELLGCEVE
notes: The construct is not defined; The same entry is used for the SPR and ELISA experiments; also called NRP1; NRP 1

What was measured:
neuropilin 1 receptor = biological target: B1; experiment: SPR (Biacore 2000), neuropilin 1 domain fixed on CM5 chip, VEGF165 as analyte 80 nM to 5 nM
Experimental: (§1) First, the affinity to a neuropilin receptor was performed on neuropilin 1 (NRP 1). Specifically, surface plasmon resonance (SPR) was performed using Biacore 2000 (GE Healthcare) in order to investigate the binding ability of TPP to the neuropilin 1 domain. Specifically, each neuropilin 1 domain was diluted in 10 mM Na-acetate buffer (pH 4.0), and fixed on CMS sensor chip (GE Healthcare, USA) at about 1,000 response units (RU). […] After the association/dissociation analysis, the CMS chip was regenerated by allowing buffer (20mM NaOH, 1M NaCl, pH 10.0) to flow at a flow rate of 30 μl/min for 1 minute.

semaphorin 3A = biological target: T1, semaphorin 3A; experiment: SPR (Biacore 2000), neuropilin 1 domain fixed on CM5 chip, semaphorin 3A as analyte 1 uM to 62.5 nM
Experimental: as §1

| Binder | Kd (neuropilin 1 receptor) | Kd (semaphorin 3A) |
| --- | --- | --- |
| VEGF165 (ligand, UniProt P15692-4 27-191, looked up) APMAEGGGQNHHEVVKFMDVYQRSYCHPIETLVDIFQEYPDEIEYIFKPSCVPLMRCGGCCNDEGLECVPTEESNITMQIMRIKPHQGQHIGEMSFLQHNKCECRPKKDRARQENPCGPCSERRKHLFVQDPQTCKCSCKNTDSRCKARQLELNERTCRCDKPRR | 3.51 nM | – |
| B1 | – | 27.9 nM |

— patent publication US20180133288A1 (ILDONG PHARM, published 2018)
